The assay deals with p53. Put plainly: two-hybrid.

Bounds are passed on as bounds.

As to SV40T (natural protein), the fold increase of reporter expression over negative controls is > 130 times.

The values are drawn from publication PMC8295636.
